Measurements taken from the supplement of paper PMC9233669.
Fewer inactive variants are shown than the library holds.

Key:
[1] = test system: biotinyl-Ile-oxazolone; assay: self-aminoacylation, catalytic enhancement (BIO) (fold over background); higher = more active; k-Seq, kA / k0A0; sequences stand for … in GGGAAUGGAUCCACAUCUACGAAUUC…UUCACUGCAGACUUGACGAAGCUG
How it was run: (§1)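 Mutagenized RNA pools with a 21-nt variable region (0.43 μM) were reacted with each biotinyl-aminoacyl-oxazolone at 2–1250 μM for 90 minutes at room temperature, in 50 μL HEPES/NaCl/KCl/MgCl2/CaCl2 buffer containing 5% acetonitrile at pH 6.9–7.0. RNA captured on streptavidin was quantified by triplicate qPCR and by Illumina sequencing. The fraction reacted for each sequence was fit to a pseudo-first-order model with bootstrapping, and catalytic enhancement is the median kA divided by the uncatalyzed rate, taken as the low-activity peak of a bimodal Gaussian fit.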

[2] = test system: biotinyl-Met-oxazolone; assay: self-aminoacylation, catalytic enhancement (BMO) (fold over background); higher = more active; k-Seq, kA / k0A0; sequences stand for … in GGGAAUGGAUCCACAUCUACGAAUUC…UUCACUGCAGACUUGACGAAGCUG
How it was run: as §1

[3] = test system: biotinyl-Val-oxazolone; assay: self-aminoacylation, catalytic enhancement (BVO) (fold over background); higher = more active; k-Seq, kA / k0A0; sequences stand for … in GGGAAUGGAUCCACAUCUACGAAUUC…UUCACUGCAGACUUGACGAAGCUG
How it was run: as §1

[4] = test system: biotinyl-Trp-oxazolone; assay: self-aminoacylation, catalytic enhancement (BWO) (fold over background); higher = more active; k-Seq, kA / k0A0; sequences stand for … in GGGAAUGGAUCCACAUCUACGAAUUC…UUCACUGCAGACUUGACGAAGCUG
How it was run: as §1

[5] = test system: biotinyl-Phe-oxazolone; assay: self-aminoacylation, catalytic enhancement (BFO) (fold over background); higher = more active; k-Seq, kA / k0A0; sequences stand for … in GGGAAUGGAUCCACAUCUACGAAUUC…UUCACUGCAGACUUGACGAAGCUG
How it was run: as §1

[6] = test system: biotinyl-Leu-oxazolone; assay: self-aminoacylation, catalytic enhancement (BLO) (fold over background); higher = more active; k-Seq, kA / k0A0; sequences stand for … in GGGAAUGGAUCCACAUCUACGAAUUC…UUCACUGCAGACUUGACGAAGCUG
How it was run: as §1

Row | Sequence | self-aminoacylation [1] | self-aminoacylation [2] | self-aminoacylation [3] | self-aminoacylation [4] | self-aminoacylation [5] | self-aminoacylation [6]
1 | AUUACCCUGGUCAUCGAGUAA [Fam2.1 aminoacylation ribozyme variant] | 8.7 | 28.9 | 10.1 | 25.3 | 118 | 26.7
2 | AUUACCCUGGUCAUCGAGUAG [Fam2.1 aminoacylation ribozyme variant] | 2.15 | 4.51 | 2.64 | 4.18 | 13.9 | 4.67
3 | AUUACCCUGGUCAUCGAUUGU [Fam2.1 aminoacylation ribozyme variant] | 0.753 | 0.73 | 0.785 | 0.386 | 0.73 | 0.736
4 | AUUACCCUGGUCAUCGCAUGA [Fam2.1 aminoacylation ribozyme variant] | 2.01 | 3.2 | 1.75 | 3.77 | 13.8 | 3.5
5 | AUUACCCUGGUCAUCGCGUGG [Fam2.1 aminoacylation ribozyme variant] | 2.8 | 3.88 | 3.14 | 5.28 | 35.6 | 6.77
6 | AUUACCCUGGUCAUCGGGAGA [Fam2.1 aminoacylation ribozyme variant] | 1.71 | 2.97 | 2.41 | 5.01 | 2.87 | 4.4
7 | AUUACCCUGGUCAUCGGGUCA [Fam2.1 aminoacylation ribozyme variant] | 3.61 | 5.33 | 4.01 | 9.71 | 22.5 | 6.66
8 | AUUACCCUGGUCAUCGUGAGA [Fam2.1 aminoacylation ribozyme variant] | 0.703 | 0.897 | 0.789 | 0.867 | 0.858 | 0.777
9 | AUUACCCUGGUCAUCUAGUAA [Fam2.1 aminoacylation ribozyme variant] | 1.1 | 1.06 | 1.08 | 0.903 | 1.32 | 1.15
10 | AUUACCCUGGUCAUCUGGUGA [Fam2.1 aminoacylation ribozyme variant] | 3.08 | 5 | 2.72 | 4.53 | 31.1 | 5.37
11 | AUUACCCUGGUCAUGGAGUGA [Fam2.1 aminoacylation ribozyme variant] | 3.07 | 4.69 | 3.02 | 5.8 | 19.7 | 4.95
12 | AUUACCCUGGUCAUGGAGUGC [Fam2.1 aminoacylation ribozyme variant] | 1.05 | 0.858 | 1.17 | 0.556 | 0.89 | 1.24
13 | AUUACCCUGGUCAUGGAGUGU [Fam2.1 aminoacylation ribozyme variant] | 1.72 | 2.46 | 1.98 | 2.57 | 3.83 | 2.73
14 | AUUACCCUGGUCAUGGAGUUA [Fam2.1 aminoacylation ribozyme variant] | 1.04 | 1.23 | 1.13 | 0.695 | 0.664 | 0.899
15 | AUUACCCUGGUCAUGGGGUGA [Fam2.1 aminoacylation ribozyme variant] | 4.02 | 8.63 | 4.17 | 9.45 | 66.9 | 10.1
16 | AUUACCCUGGUCAUGUAGUGA [Fam2.1 aminoacylation ribozyme variant] | 1.77 | 1.97 | 1.81 | 2.4 | 4.73 | 2
17 | AUUACCCUGGUCAUUGAGUGA [Fam2.1 aminoacylation ribozyme variant] | 4.27 | 9.01 | 4.49 | 10.8 | 44.1 | 8.58
18 | AUUACCCUGGUCAUUGAGUGC [Fam2.1 aminoacylation ribozyme variant] | 0.962 | 0.995 | 0.993 | 0.798 | 1.08 | 1.15
19 | AUUACCCUGGUCAUUGGGUGA [Fam2.1 aminoacylation ribozyme variant] | 5.58 | 12.1 | 5.6 | 12.9 | 93.4 | 13.1
20 | AUUACCCUGGUCCUAGAGUGA [Fam2.1 aminoacylation ribozyme variant] | 4.03 | 9.27 | 4.85 | 10.8 | 45.8 | 9.4
21 | AUUACCCUGGUCCUCGAGAGA [Fam2.1 aminoacylation ribozyme variant] | 0.884 | 0.757 | 1.28 | 0.889 | 0.376 | 1.32
22 | AUUACCCUGGUCCUCGAGCGA [Fam2.1 aminoacylation ribozyme variant] | 1.46 | 1.97 | 1.77 | 1.68 | 3.24 | 1.25
23 | AUUACCCUGGUCCUCGAGUAA [Fam2.1 aminoacylation ribozyme variant] | 1.35 | 0.966 | 1.36 | 1.64 | 0.542 | 1.33
24 | AUUACCCUGGUCCUCGAGUGA [Fam2.1 aminoacylation ribozyme variant] | 2.07 | 3.43 | 2.24 | 3.77 | 6.54 | 3.55
25 | AUUACCCUGGUCCUCGAGUGU [Fam2.1 aminoacylation ribozyme variant] | 1.59 | 2.78 | 1.73 | 3.02 | 2.62 | 3.22
26 | AUUACCCUGGUCGUCGGGUGA [Fam2.1 aminoacylation ribozyme variant] | 2.86 | 3.87 | 2.98 | 5.14 | 26.3 | 4.72

Row | Sequence | self-aminoacylation [1] | self-aminoacylation [2] | self-aminoacylation [3] | self-aminoacylation [4] | self-aminoacylation [5] | self-aminoacylation [6]
27 | AUUACCCUGGUCUUCGACUGA [Fam2.1 aminoacylation ribozyme variant] | 0.992 | 0.832 | 0.737 | 0.675 | 0.68 | 0.717
28 | AUUACCCUGGUGAACGAGUGA [Fam2.1 aminoacylation ribozyme variant] | 1.42 | 2.47 | 1.65 | 2.82 | 2.79 | 2.25
29 | AUUACCCUGGUGAUCAAGUGA [Fam2.1 aminoacylation ribozyme variant] | 1.81 | 3.19 | 1.92 | 4.2 | 8.79 | 3.25
30 | AUUACCCUGGUGAUCGAAUGA [Fam2.1 aminoacylation ribozyme variant] | 0.957 | 0.846 | 1.09 | 0.949 | 0.432 | 1.02
31 | AUUACCCUGGUGAUCGAGUGA [Fam2.1 aminoacylation ribozyme variant] | 2.56 | 5.19 | 2.69 | 5.95 | 25.1 | 5.14
32 | AUUACCCUGGUGAUCGAGUGG [Fam2.1 aminoacylation ribozyme variant] | 1.11 | 1.79 | 1.26 | 1.82 | 3.23 | 1.63
33 | AUUACCCUGGUUAUCGAGUUA [Fam2.1 aminoacylation ribozyme variant] | 0.945 | 1.15 | 0.885 | 0.319 | 0.868 | 1.01
34 | AUUACCCUGGUUAUCGUGUGA [Fam2.1 aminoacylation ribozyme variant] | 1.27 | 2.4 | 1.49 | 2.76 | 15 | 2.3
35 | AUUACCCUGGUUAUUGAGUGA [Fam2.1 aminoacylation ribozyme variant] | 6.24 | 14.4 | 6.4 | 17.8 | 102 | 15.1
36 | AUUACCCUGUUCAUAGAGUGA [Fam2.1 aminoacylation ribozyme variant] | 6.48 | 15.6 | 6.44 | 18 | 110 | 14.6
37 | AUUACCCUGUUGAUCGAGUGA [Fam2.1 aminoacylation ribozyme variant] | 5.62 | 12.5 | 5.71 | 16.8 | 78.3 | 13
38 | AUUACCCUUGGCAUCGAGUGA [Fam2.1 aminoacylation ribozyme variant] | 2.75 | 6 | 3.39 | 8.88 | 31.7 | 6.72
39 | AUUACCCUUGUCAUCGAGUAA [Fam2.1 aminoacylation ribozyme variant] | 1.19 | 1.36 | 1.13 | 1.53 | 0.935 | 1.22
40 | AUUACCCUUGUCAUCGAGUCA [Fam2.1 aminoacylation ribozyme variant] | 0.895 | 0.756 | 0.841 | 0.591 | 0.6 | 0.708
41 | AUUACCCUUGUCAUCGAGUGG [Fam2.1 aminoacylation ribozyme variant] | 1.25 | 2.03 | 1.54 | 1 | 1.98 | 1.85
42 | AUUACCCUUGUCAUCGAGUGU [Fam2.1 aminoacylation ribozyme variant] | 1.71 | 2.89 | 2.03 | 3.65 | 8.43 | 3.08
43 | AUUACCGGGGUCAUCGAGUGA [Fam2.1 aminoacylation ribozyme variant] | 3.48 | 5.81 | 3.67 | 6.27 | 33.8 | 6.14
44 | AUUACCGUGGGCAUCGAGUGA [Fam2.1 aminoacylation ribozyme variant] | 3.09 | 5.35 | 3.22 | 5.68 | 34.7 | 6.2
45 | AUUACCGUGGUCAUCGACUGA [Fam2.1 aminoacylation ribozyme variant] | 1.06 | 0.911 | 1.11 | 0.507 | 0.518 | 0.742
46 | AUUACCGUGGUCAUCGAGUGA [Fam2.1 aminoacylation ribozyme variant] | 3.39 | 6.27 | 3.68 | 7.62 | 35.1 | 6.4
47 | AUUACCGUGGUCAUCGAGUGC [Fam2.1 aminoacylation ribozyme variant] | 0.895 | 0.762 | 1.05 | 1 | 2.57 | 1.08
48 | AUUACCGUGGUCAUCGAGUUA [Fam2.1 aminoacylation ribozyme variant] | 1.09 | 0.946 | 1.02 | 0.691 | 0.524 | 0.897
49 | AUUACCGUGGUCAUCGGGUGA [Fam2.1 aminoacylation ribozyme variant] | 7.08 | 11.7 | 8.1 | 17.3 | 105 | 11.9
50 | AUUACCGUGGUCUUCGAGUGA [Fam2.1 aminoacylation ribozyme variant] | 2.96 | 5.14 | 3.21 | 6.36 | 27 | 5.05
51 | AUUACCGUUGUCAUCGAGUGA [Fam2.1 aminoacylation ribozyme variant] | 4.49 | 7.75 | 4.16 | 9.94 | 40.2 | 8.01
